In US6359194 (Takeda / Millennium, dated 2002):

B3: fchd540 protein fused to a flag peptide (transfected 293 cells or BAECs) (other, human, UniProt O15105 1-426, looked up)
chain: MFRTKRSALVRRLWRSRAPGGEDEEEGAGGGGGGGELRGEGATDSRAHGAGGGGPGRAGCCLGKAVRGAKGHHHPHPPAAGAGAAGGAEADLKALTHSVLKKLKERQLELLLQAVESRGGTRTACLLLPGRLDCRLGPGAPAGAQPAQPPSSYSLPLLLCKVFRWPDLRHSSEVKRLCCCESYGKINPELVCCNPHHLSRLCELESPPPPYSRYPMDFLKPTADCPDAVPSSAETGGTNYLAPGGLSDSQLLLEPGDRSHWCVVAYWEEKTRVGRLYCVQEPSLDIFYDLPQGNGFCLGQLNSDNKSQLVQKVRSKIGCGIQLTREVDGVWVYNRSSYPIFIKSATLDNPDSRTLLVHKVFPGFSIKAFDYEKAYSLQRPNDHEFMQQPWTGFTVQISFVKGWGQCYTRQFISSCPCWLEVIFNSR
notes: Co-immunoprecipitation construct; not shown: flag peptide (different from that on rchd534)

Key:
[1] = biological target: B3; test: co-immunoprecipitation, BAECs against 293 cells, equal amounts of protein
Procedure: (§1) The interaction of the rchd534 and fchd540 proteins, observed in yeast cells as described above, was tested in mammalian endothelial cell tissue culture. Either bovine aortic endothelial cells (BAECs) or 293 cells (human embryonic kidney cells, ATCC Accession No. CRL-1573) were transfected with constructs encoding both the rchd534 and fchd540 proteins, each fused to a different flag peptide allowing for specific immunoprecipitation. […] The co-immunoprecipitation of rchd534 and fchd540 further supports that these proteins interact in human cells that are physiologically relevant to cardiovascular disease.
The ability of the rchd534 and fchd540 proteins to interact with themselves and with other protein members of the TGF-β signalling pathway (MADR1, MADR2, DPC4, TbR1, TSR1, ActR1b, ALK3, ALK6), was tested using this co-inmunoprecipitation method. Each gene was transfected alone and in various combinations with other TGF-β pathway genes in either 293 cells or BAECs. The rchd534 protein formed homodimers in 293 cells and BAECs. […] As mentioned above, the rchd534 and fchd540 proteins formed heterodimers in 293 cells and BAECs. This interaction is about 50 fold stronger in BAECs than 293 cells based on equal amounts of protein.

[2] = biological target: T1, GAL4 DNA-binding domain fusion to rchd534 (human, UniProt P04386 1-147; O43541 1-235, limits assumed); test: yeast two-hybrid mating assay (HIS3 and lacZ reporters)
T1 construct: Yeast two-hybrid bait; also called rchd534 bait protein
Description: (§2) Yeast expression plasmids encoding the GAL4 DNA-binding domain either alone or fused in frame to fchd540, rchd534, Drosophilia MAD, DPC4, or p53 were transformed into MATa two-hybrid screening strain HF7c. Yeast expression plasmnids encoding the GAL4 transcriptional activation domain alone and GAL4 activation domain fusions to rchd534 and SV40 were transformed into MATα two-hybrid screening strain Y1 87. p53 and SV40 interact with each other and should not interact with the experimental proteins. The HF7c transformants were propagated as stripes on semisolid synthetic complete medium lacking L-tryptophan and the Y187 transformants were grown as stripes on semisolid synthetic complete medium lacking L-leucine. Both sets of stripes were replica plated in the form of a grid onto a single rich YPAD plate and the haploid strains of opposite mating types were allowed to mate overnight at 30° C. The yeast strains on the mating plate were then replica plated to a synthetic complete plate lacking L-leucine and L-tryptophan to select for diploids and incubated at 30° C. overnight. Diploid strains on the synthetic complete plate lacking L-leucine and L-tryptophan were replica plated to a synthetic complete plate lacking L-leucine, L-tryptophan, and L-histidine to assay HIS3 expression and a paper filter on a synthetic complete plate lacking L-leucine and L-tryptophan. The next day the paper filter was subjected to the paper filter beta-galactosidase assay to measure expression of the lacZ reporter gene. HIS3 expression was scored after 3 days of growth at 30° C.
(§3) It was confirmed that these rchd534 cDNAs encode proteins that physically interact specifically with fchd540. Yeast expression plasmids encoding the GAL4 DNA-binding domain either alone or fused in frame to fchd540, rchd534, Drosophila MAD, DPC4, and p53 were transformed into MATa two-hybrid screening strain HF7c. Yeast expression plasmids encoding the GAL4 transcriptional activation domain (GAL4 AD) alone and GAL4 activation domain fusions to tchv03a, tchvR4A and SV40 were transformed into MATα two-hybrid screening strain Y1 87. p53 and SV40 interact with each other and should not interact with the experimental proteins. The HF7c transformants were propagated as stripes on semi-solid synthetic complete medium lacking […].

[3] = biological target: T2, GAL4 DNA-binding domain fusion to Drosophila MAD (Drosophila, UniProt P04386 1-147; P42003 1-455, limits assumed); test: as above
T2 construct: Yeast two-hybrid bait; also called Dros; MAD; MAD bait protein
Description: as §2, §3

[4] = biological target: T3, GAL4 DNA-binding domain-fchd540 fusion (human, UniProt P04386 1-147; O15105 1-426); test: as above
T3 construct: Yeast two-hybrid bait; also called fchd540 bait protein; pGBT9-fchd540
Description: as §2, §3

[5] = biological target: T4, GAL4 DNA-binding domain fusion to DPC4 (UniProt P04386 1-147; Q13485 1-552, limits assumed); test: as above
T4 construct: Yeast two-hybrid bait; also called DPC4 bait protein
Description: as §2, §3

[6] = biological target: T5, GAL4 DNA-binding domain alone (UniProt P04386 1-147); test: as above
T5 construct: Two-hybrid control
Description: as §2, §3

[7] = biological target: the molecule itself; test: co-immunoprecipitation from transfected 293 cells or BAECs
Procedure: as §1

B1: rchd534 protein fused to a flag peptide (transfected 293 cells or BAECs) (other, human, UniProt O43541-2 1-235, looked up)
chain: MSRMGKPIETQKSPPPPYSRLSPRDEYKPLDLSDSTLSYTETEATNSLITAPGEFSDASMSPDATKPSHWCSVAYWEHRTRVGRLYAVYDQAVSIFYDLPQGSGFCLGQLNLEQRSESVRRTRSKIGFGILLSKEPDGVWAYNRGEHPIFVNSPTLDAPGGRALVVRKVPPGYSIKVFDFERSGLQHAPEPDAADGPYDPNSVRISFAKGWGPCYSRQFITSCPCWLEILLNNPR
notes: Co-immunoprecipitation construct; also called Smad6; not shown: flag peptide for immunoprecipitation
[1]
  fold stronger interaction in BAECs than in 293 cells: ~50 fold

B2: GAL4 transcriptional activation domain alone (other, UniProt P04386 768-881, looked up)
chain: ANFNQSGNIADSSLSFTFTNSSNGPNLITTQTNSQALSQPIASSNVHDNFMNNEITASKIDDGNNSKPLSPGWTDQTAYNAFGITTGMFNTTTMDDVYNYLFDDEDTPPNPKKE
notes: Two-hybrid control; also called GAL4 AD alone; GAL4 AD
[2]
  binding result: no binding
[3]
  binding result: no binding
[4]
  binding result: no binding
[5]
  binding result: no binding
[6]
  binding result: no binding

## B3
[7]
  binding result: no binding
